Source: the supplement of paper PMC9112550, “Optimization of the antimicrobial peptide Bac7 by deep mutational scanning” (BMC Biology, 2022)

System: Escherichia coli TOP10
Assay: shrunken log2 fold change of peptide-encoding DNA abundance (4.5 h post-induction vs induction); higher = less antimicrobial activity (less host growth inhibition)
Details: time post-induction: 4.5 h; library: site-saturation at positions 5, 18, 19, 20
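Also: peptides expressed intracellularly from a pBAD plasmid library in pooled LB shake-flask culture, induced with 0.3% L-arabinose, DNA abundance read by NGS, three biological replicates, DESeq2 with apeglm shrinkage.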

| Sequence | shrunken log2 fold change |
| --- | --- |
| RRIRKRPPRLPRPRPRPMQRPRP | 0.744 |
| RRIRGRPPRLPRPRPRPFKAPRP | 0.2 |
| RRIRCRPPRLPRPRPRPDNDPRP | -0.124 |
| RRIRYRPPRLPRPRPRPFKNPRP | -0.426 |
| RRIRSRPPRLPRPRPRPPSQPRP | 0.235 |
| RRIRARPPRLPRPRPRPKDCPRP | 0.181 |
| RRIRARPPRLPRPRPRPNSHPRP | -0.248 |
| RRIRLRPPRLPRPRPRPLYIPRP | -0.932 |
| RRIRMRPPRLPRPRPRPHTYPRP | -0.209 |
| RRIRDRPPRLPRPRPRPSRRPRP | 0.146 |
| RRIRWRPPRLPRPRPRPCGCPRP | -0.0615 |
| RRIRNRPPRLPRPRPRPAFTPRP | -0.176 |
| RRIRIRPPRLPRPRPRPRIWPRP | 0.063 |
| RRIRWRPPRLPRPRPRPHVSPRP | -0.0109 |
| RRIRARPPRLPRPRPRPRCSPRP | 0.205 |
| RRIRKRPPRLPRPRPRPCQHPRP | -0.167 |
| RRIRARPPRLPRPRPRPESIPRP | -0.0955 |
| RRIRQRPPRLPRPRPRPYFQPRP | -0.428 |
| RRIRERPPRLPRPRPRPGTMPRP | 0.0721 |
| RRIRGRPPRLPRPRPRPIQRPRP | 0.0933 |
| RRIRHRPPRLPRPRPRPRCVPRP | 0.548 |
| RRIRNRPPRLPRPRPRPRIMPRP | -0.337 |
| RRIRVRPPRLPRPRPRPGCVPRP | 0.267 |
| RRIRCRPPRLPRPRPRPPACPRP | 0.479 |
| RRIRVRPPRLPRPRPRPQPSPRP | 0.00981 |

| Sequence | shrunken log2 fold change |
| --- | --- |
| RRIRYRPPRLPRPRPRPVPKPRP | 0.0938 |
| RRIRYRPPRLPRPRPRPCFIPRP | -0.321 |
| RRIRSRPPRLPRPRPRPFRTPRP | -0.318 |
| RRIRNRPPRLPRPRPRPVCGPRP | 0.0972 |
| RRIRIRPPRLPRPRPRPIMTPRP | -0.26 |
| RRIRDRPPRLPRPRPRPGSGPRP | 0.499 |
| RRIRPRPPRLPRPRPRPVYNPRP | 0.88 |
| RRIRMRPPRLPRPRPRPDDWPRP | 3.03 |
| RRIRYRPPRLPRPRPRPAHRPRP | 0.0479 |
| RRIRKRPPRLPRPRPRPNKVPRP | -0.00759 |
| RRIRRRPPRLPRPRPRPSRFPRP | 0.536 |
| RRIRERPPRLPRPRPRPWVSPRP | -0.0377 |
| RRIRARPPRLPRPRPRPDTTPRP | 0.0242 |
| RRIRQRPPRLPRPRPRPTWSPRP | 0.136 |
| RRIRNRPPRLPRPRPRPFKSPRP | -0.014 |
| RRIRARPPRLPRPRPRPAADPRP | 1.13 |
| RRIRMRPPRLPRPRPRPHRKPRP | 0.0879 |
| RRIRKRPPRLPRPRPRPMKAPRP | -0.00163 |
| RRIRFRPPRLPRPRPRPPVFPRP | 0.138 |
| RRIRNRPPRLPRPRPRPSCHPRP | 1.83 |
| RRIRLRPPRLPRPRPRPLLHPRP | -0.0703 |
| RRIRGRPPRLPRPRPRPETWPRP | 1.28 |
| RRIRPRPPRLPRPRPRPMQVPRP | -0.012 |
| RRIRRRPPRLPRPRPRPHHYPRP | -0.168 |
| RRIRRRPPRLPRPRPRPPSIPRP | -0.212 |

| Sequence | shrunken log2 fold change |
| --- | --- |
| RRIRVRPPRLPRPRPRPEDCPRP | -0.0557 |
| RRIRMRPPRLPRPRPRPHISPRP | -0.0571 |
| RRIRGRPPRLPRPRPRPVKSPRP | 0.0201 |
| RRIRTRPPRLPRPRPRPLGGPRP | 0.137 |
| RRIRCRPPRLPRPRPRPLMYPRP | -0.606 |
| RRIRFRPPRLPRPRPRPIECPRP | -0.00174 |
| RRIRTRPPRLPRPRPRPQPKPRP | 0.151 |
| RRIRKRPPRLPRPRPRPPTGPRP | 0.265 |
| RRIRSRPPRLPRPRPRPIGSPRP | 0.136 |
| RRIRSRPPRLPRPRPRPYVDPRP | -0.594 |
| RRIRWRPPRLPRPRPRPMVGPRP | 0.171 |
| RRIRPRPPRLPRPRPRPEKEPRP | -0.143 |
| RRIRFRPPRLPRPRPRPAFVPRP | -0.028 |
| RRIRWRPPRLPRPRPRPLAAPRP | 0.994 |
| RRIRKRPPRLPRPRPRPRDPPRP | 1.06 |
| RRIRARPPRLPRPRPRPPCAPRP | 0.598 |
| RRIRNRPPRLPRPRPRPQVHPRP | -0.161 |
| RRIRSRPPRLPRPRPRPFDHPRP | -0.488 |
| RRIRFRPPRLPRPRPRPNQAPRP | 0.138 |
| RRIRERPPRLPRPRPRPDDRPRP | -0.135 |
| RRIRERPPRLPRPRPRPDNDPRP | -0.259 |
| RRIRMRPPRLPRPRPRPFCEPRP | 0.148 |
| RRIRARPPRLPRPRPRPQNVPRP | -0.035 |
| RRIRDRPPRLPRPRPRPMSRPRP | -0.107 |
| RRIRCRPPRLPRPRPRPDMPPRP | -0.253 |

| Sequence | shrunken log2 fold change |
| --- | --- |
| RRIRHRPPRLPRPRPRPCKAPRP | -0.0317 |
| RRIRMRPPRLPRPRPRPLTCPRP | -0.0821 |
| RRIRARPPRLPRPRPRPQDIPRP | -0.15 |
| RRIRMRPPRLPRPRPRPSKIPRP | -0.0332 |
| RRIRKRPPRLPRPRPRPSKRPRP | 0.0981 |
| RRIRTRPPRLPRPRPRPRFLPRP | 0.903 |
| RRIRERPPRLPRPRPRPTVGPRP | -0.116 |
| RRIRLRPPRLPRPRPRPIAWPRP | 0.0351 |
| RRIRGRPPRLPRPRPRPQQRPRP | 1.43 |
| RRIRYRPPRLPRPRPRPITCPRP | 0.014 |
| RRIRERPPRLPRPRPRPAWHPRP | 0.324 |
| RRIRSRPPRLPRPRPRPNSPPRP | -0.149 |
| RRIRNRPPRLPRPRPRPPQEPRP | -0.0479 |
| RRIRFRPPRLPRPRPRPFGWPRP | 0.0193 |
| RRIRVRPPRLPRPRPRPVHMPRP | -0.0089 |
| RRIRARPPRLPRPRPRPSPWPRP | 0.348 |
| RRIRMRPPRLPRPRPRPEYVPRP | 0.16 |
| RRIRLRPPRLPRPRPRPDMNPRP | -0.155 |
| RRIRWRPPRLPRPRPRPLGGPRP | 0.253 |
| RRIRMRPPRLPRPRPRPWGLPRP | 0.0219 |
| RRIRKRPPRLPRPRPRPGHRPRP | 0.118 |
| RRIRHRPPRLPRPRPRPFLYPRP | -0.624 |
| RRIRFRPPRLPRPRPRPPYGPRP | -0.0784 |
| RRIRSRPPRLPRPRPRPEKYPRP | -1.28 |
| RRIRFRPPRLPRPRPRPWRSPRP | -0.0939 |

| Sequence | shrunken log2 fold change |
| --- | --- |
| RRIRDRPPRLPRPRPRPADFPRP | -0.0606 |
| RRIRIRPPRLPRPRPRPPLIPRP | -0.512 |
| RRIRFRPPRLPRPRPRPGFCPRP | -0.179 |
| RRIRSRPPRLPRPRPRPNCSPRP | -0.0305 |
| RRIRWRPPRLPRPRPRPDHGPRP | -0.104 |
| RRIRIRPPRLPRPRPRPFTVPRP | -0.214 |
| RRIRSRPPRLPRPRPRPHFDPRP | 0.0286 |
| RRIRPRPPRLPRPRPRPAGPPRP | 0.314 |
| RRIRIRPPRLPRPRPRPTCDPRP | -0.369 |
| RRIRSRPPRLPRPRPRPWIAPRP | -0.181 |
| RRIRERPPRLPRPRPRPDRYPRP | -0.00433 |
| RRIRWRPPRLPRPRPRPTGIPRP | 0.0938 |
| RRIRCRPPRLPRPRPRPFFQPRP | -0.152 |
| RRIRFRPPRLPRPRPRPYYIPRP | -0.794 |
| RRIRIRPPRLPRPRPRPIHCPRP | -0.00133 |
| RRIRIRPPRLPRPRPRPPGKPRP | 0.324 |
| RRIRPRPPRLPRPRPRPACNPRP | 0.00285 |
| RRIRKRPPRLPRPRPRPFSSPRP | -0.219 |
| RRIRTRPPRLPRPRPRPWVEPRP | -0.297 |
| RRIRGRPPRLPRPRPRPHKAPRP | -0.0636 |
| RRIRERPPRLPRPRPRPVTWPRP | -0.165 |
| RRIRCRPPRLPRPRPRPPMWPRP | 0.557 |
| RRIRLRPPRLPRPRPRPRAMPRP | 0.373 |
| RRIRYRPPRLPRPRPRPAGNPRP | -0.601 |
| RRIRTRPPRLPRPRPRPPWFPRP | 0.0438 |

| Sequence | shrunken log2 fold change |
| --- | --- |
| RRIRHRPPRLPRPRPRPKKVPRP | 0.00707 |
| RRIRTRPPRLPRPRPRPVETPRP | 0.306 |
| RRIRGRPPRLPRPRPRPVDYPRP | -0.0159 |
| RRIRSRPPRLPRPRPRPVWHPRP | 0.182 |
| RRIRWRPPRLPRPRPRPCEFPRP | -0.0211 |
| RRIRSRPPRLPRPRPRPSQMPRP | -0.161 |
| RRIRMRPPRLPRPRPRPKVAPRP | -0.0166 |
| RRIRNRPPRLPRPRPRPFMPPRP | -0.209 |
| RRIRCRPPRLPRPRPRPEQPPRP | 0.581 |
| RRIRVRPPRLPRPRPRPVNVPRP | -0.411 |
| RRIRERPPRLPRPRPRPARCPRP | 0.114 |
| RRIRERPPRLPRPRPRPIRSPRP | -0.112 |
| RRIRVRPPRLPRPRPRPVQEPRP | -0.0375 |
| RRIRVRPPRLPRPRPRPAQLPRP | 0.0744 |
| RRIRERPPRLPRPRPRPKFVPRP | -0.287 |
| RRIRRRPPRLPRPRPRPAPWPRP | 0.626 |
| RRIRGRPPRLPRPRPRPWTWPRP | 0.339 |
| RRIRGRPPRLPRPRPRPQHAPRP | 0.797 |
| RRIRCRPPRLPRPRPRPRSSPRP | -0.138 |
| RRIRLRPPRLPRPRPRPNPYPRP | -0.0545 |
| RRIRCRPPRLPRPRPRPTFKPRP | -0.148 |
| RRIRQRPPRLPRPRPRPVLTPRP | 0.0694 |
| RRIRCRPPRLPRPRPRPFWQPRP | -0.0799 |
| RRIRMRPPRLPRPRPRPQLTPRP | 0.743 |
| RRIRARPPRLPRPRPRPQNLPRP | -0.564 |
